Publication PMC7688343, “GDF6-CD99 Signaling Regulates Src and Ewing Sarcoma Growth” (Cell reports, 2020)
Where a chain is given by its changes, count along the chain named.

What was measured:
Test in all cases: MST; CD99-Fc labelled with RED-NHS 2nd generation, in PBS/0.005% Tween-20; GDF6 prodomain from transfected 293T cells serially diluted in Opti-MEM; 30 minutes at room temperature; Monolith NT.115
Settings in all cases: one partner purified
[1] = biological target: T1, GDF6 prodomain (residue 1 - 335) (UniProt Q6KF10 23-335)
T1 construct: signal peptide in the construct; GDF6 (BMP13) prodomain, residue 1-335; Construct of the microscale thermophoresis; no tag and no purification are stated; also called wild-type GDF6 prodomain
T1 sequence (looked up): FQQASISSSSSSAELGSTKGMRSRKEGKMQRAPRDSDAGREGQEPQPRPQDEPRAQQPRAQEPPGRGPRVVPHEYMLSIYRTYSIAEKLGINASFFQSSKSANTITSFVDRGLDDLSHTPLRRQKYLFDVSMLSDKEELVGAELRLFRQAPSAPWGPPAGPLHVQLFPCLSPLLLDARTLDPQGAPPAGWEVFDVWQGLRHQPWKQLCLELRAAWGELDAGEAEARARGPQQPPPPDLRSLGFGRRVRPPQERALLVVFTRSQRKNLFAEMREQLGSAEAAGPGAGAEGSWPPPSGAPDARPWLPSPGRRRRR

GDF6 A249E prodomain = biological target: T2, GDF6 A249E prodomain (UniProt Q6KF10 23-335, A249E)
T2 construct: signal peptide in the construct; GDF6 prodomain with the Klippel-Feil syndrome mutation A249E; limits as stated for the wild type in the same sentence (residue 1-335); Construct of the microscale thermophoresis; mutation recurrent in Klippel-Feil syndrome patients
T2 sequence (looked up): T1 sequence (looked up) with A227E

GDF6 L289P prodomain = biological target: T3, GDF6 L289P prodomain (UniProt Q6KF10 23-335, L289P)
T3 construct: signal peptide in the construct; GDF6 prodomain with the Klippel-Feil syndrome mutation L289P; limits as stated for the wild type in the same sentence (residue 1-335); Construct of the microscale thermophoresis; mutation recurrent in Klippel-Feil syndrome patients
T3 sequence (looked up): T1 sequence (looked up) with L267P

Kd [1]: 17.2 nM
Kd (GDF6 A249E prodomain): 3.34 nM
Kd (GDF6 L289P prodomain): 2.26 nM
B1: Recombinant human CD99-Fc fusion protein (residue 23 - 122) (Fc fusion, UniProt P14209 23-122, looked up)
chain: DGGFDLSDALPDNENKKPTAIPKKPSAGDDFDLGDAVVDGENDDPRPPNPPKPMPNPNPNHPSSSGSFSDADLADGVSGGEGKGGSDGGGSHRKEGEEAD
modifications: RED-NHS 2nd generation dye, amine reactive (labelled for the microscale thermophoresis only)
notes: The source is stated for the MST; the protein A Sepharose pull-down names the same limits and tag but no source; source: bought: R&D Systems (3968-CD-050); not shown: Fc, C-terminal, kept
